Laboratory results published in US20200347127A1 (CRESCENDO BIOLOGICS, published 2020).
Several values for one entry are separate records, joined by “and”; a condition that tells them apart may be missing. Equal values may be shown once.

T1: IL-17C (UniProt Q9P0M4 19-197, limits assumed)
T1 sequence (looked up): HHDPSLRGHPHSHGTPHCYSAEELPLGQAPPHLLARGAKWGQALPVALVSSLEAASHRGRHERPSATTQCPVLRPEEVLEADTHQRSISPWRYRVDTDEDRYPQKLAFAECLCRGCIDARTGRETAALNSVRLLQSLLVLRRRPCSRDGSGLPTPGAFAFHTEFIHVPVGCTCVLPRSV

T2: IL-17F (UniProt Q96PD4 31-163, limits assumed)
T2 sequence (looked up): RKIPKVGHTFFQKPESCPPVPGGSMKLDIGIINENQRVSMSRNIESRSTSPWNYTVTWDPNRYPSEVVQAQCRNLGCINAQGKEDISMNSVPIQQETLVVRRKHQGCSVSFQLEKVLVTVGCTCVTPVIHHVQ

T3: murine IL-17A (murine, UniProt Q62386 26-158, limits assumed)
T3 sequence (looked up): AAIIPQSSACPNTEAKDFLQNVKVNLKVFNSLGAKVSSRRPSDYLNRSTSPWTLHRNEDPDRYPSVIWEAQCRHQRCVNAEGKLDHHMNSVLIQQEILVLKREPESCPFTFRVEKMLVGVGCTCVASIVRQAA


Tests used:
[1] = biological target: T4, recombinant human IL-17A (human, UniProt Q16552 24-155); experiment: SPR (BIAcore T200), IL-17A coupled to CM5 chip, single-cycle kinetics;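 further: VH domain analytes, kinetic constants obtained by fitting blank-corrected sensorgrams to a 1:1 binding model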
T4 construct: Bought recombinant protein (Peprotech AF-200-17); also called Peprotech AF-200-17

[2] = biological target: T5, recombinant IL-17RA-Fc (UniProt Q96F46 33-320); experiment: specificity ELISA on coated antigen, VH concentration not given
T5 construct: Bought reagent; also called R & D systems cat #177-IR-100; receptor; not shown: Fc part of the bought fusion, not described

[3] = biological target: T1, IL-17C; experiment: as above
[4] = biological target: T2, IL-17F; experiment: as above
[5] = biological target: T3, murine IL-17A; experiment: as above
[6] = biological target: T4, recombinant human IL-17A; experiment: cell-based or functional assay
[7] = biological target: T4, recombinant human IL-17A; experiment: BIAcore single-cycle kinetics on immobilised IL-17A, 1:1 binding fit
[8] = biological target: T4, recombinant human IL-17A; experiment: SPR (BIAcore)
[9] = biological target: T4, recombinant human IL-17A; experiment: BIAcore single-cycle kinetics on immobilised IL-17A, 1:1 binding fit; remark: listed apart in the source

T4 sequence (Q16552 24-155): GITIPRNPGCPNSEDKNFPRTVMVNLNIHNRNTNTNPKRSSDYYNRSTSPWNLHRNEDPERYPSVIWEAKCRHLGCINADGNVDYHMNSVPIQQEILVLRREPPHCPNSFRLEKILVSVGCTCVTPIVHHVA

Binder	Kd [1]	koff [1]	kon [1]	binding result [2]	binding result [3]	binding result [4]	binding result [5]	Cell assay IC50 (nM), IL-17A-induced IL6 release from HT1080 [6]	Kd [7]	kon [7]	Kd [8]	koff [7]	Kd [9]	koff [9]	kon [9]
VH 1.3.1 (clone 1.3 expressed from phagemid vector: with linker residues and His tag) (VHH, Human single VH domain; also called Clone 1.3 prep 1; Clone 1.3 prep 2) VHH: EVQLVESGGGLVQPGGSLRLSCAASGFTFSSYSMYWVRQAPGKGLEWVAEIKQDGSVQYYVDSVKGRFTISRDNAKNSLYLQMNSLRAEDTAVYYCAKGEILPLYFDYWGQGTLVTVSS	0.627 nM and 0.23 nM	0.000501 s⁻¹ and 0.000222 s⁻¹	799000 M⁻¹ s⁻¹ and 964000 M⁻¹ s⁻¹	no binding	no binding	no binding	binds								
Clone 1.15 (VHH, Human single VH domain) VHH: EVQLVESGGGLVQPGGSLRLSCAASGFTFSSYSMYWVRQAPGKGLEWVAEIRQDGSEQYYVDSVKGRFTISRDNAKNSLYLQMNSLRAEDTAVYYCAKGEILPLYFDYWGQGTLVTVSS	0.232 nM	0.000242 s⁻¹	1.04e+06 M⁻¹ s⁻¹	no binding	no binding	no binding	binds	2.5 nM							
VH 1.3.3 (clone 1.3 with C terminal extension) (VHH, Human single VH domain) VHH: EVQLVESGGGLVQPGGSLRLSCAASGFTFSSYSMYWVRQAPGKGLEWVAEIKQDGSVQYYVDSVKGRFTISRDNAKNSLYLQMNSLRAEDTAVYYCAKGEILPLYFDYWGQGTLVTVSS									0.68 nM	750000 M⁻¹ s⁻¹					
VH 1.3.2 (clone 1.3 with C terminal extension and His tag) (VHH, Human single VH domain) VHH: EVQLVESGGGLVQPGGSLRLSCAASGFTFSSYSMYWVRQAPGKGLEWVAEIKQDGSVQYYVDSVKGRFTISRDNAKNSLYLQMNSLRAEDTAVYYCAKGEILPLYFDYWGQGTLVTVSS										799000 M⁻¹ s⁻¹	0.63 nM	0.000501 s⁻¹			
VH 1.19.1 (clone 1.19 expressed from phagemid vector: with linker residues and His tag) (VHH, Human single VH domain) VHH: EVQLVESGGGLVQPGGSLRLSCATSGFTFSSYGMYWVRQAPGKGLEWVAEIKQDGSEKYYVDSVKGRFTISRDNAKNSLYLQMNSLRAEDTAVYYCAKGEILPLYFDYWGQGTLVTVSS	0.215 nM	0.000153 s⁻¹	714000 M⁻¹ s⁻¹	no binding	no binding	no binding	binds	1.2 nM							
VH 1.20.1 (clone 1.20 expressed from phagemid vector: with linker residues and His tag) (VHH, Human single VH domain) VHH: EVQLVESGGGLVQPGGSLRLSCAASGFTFSSYGMYWVRQAPGKGLEWVAKIEQDGSEEYYADSVKGRFTISRDNAKKSLYLQMNSLRAEDTAVYYCAKGEILPLYFDYWGQGTLVTVSS	0.244 nM	0.000208 s⁻¹	851000 M⁻¹ s⁻¹	no binding	no binding	no binding	binds	2.03 nM							
VH 1.16.1 (clone 1.16 expressed from phagemid vector: with linker residues and His tag) (VHH, Human single VH domain) VHH: EVQLVESGGGLVQPGGSLRLSCAASGFTFSSYSMYWVRQAPGKGLEWVAEIKQDGSEQYYVDSVKGRFTISRDNAKNSLYLQMNGLRAEDTAVYYCAKGEILPLYFDYWGQGTLVTVSS	0.216 nM	0.000213 s⁻¹	986000 M⁻¹ s⁻¹	no binding	no binding	no binding		1.4 nM							
VH 1.2.3 (clone 1.2 with C terminal extension) (VHH, Human single VH domain) VHH: EVQLVESGGGLVQPGGSLRLSCAASGFTFSSYSMYWVRQAPGKGLEWVAEIKQDGSVQYYVSDVKGRFTISRDNAKNSLYLQMNSLRAEDTAVYYCAKGEILPLYFDYWGQGTLVTVSS													0.62 nM	0.000465 s⁻¹	748000 M⁻¹ s⁻¹
